Laboratory results taken from the supplement of paper PMC11316812.
± gives the standard deviation of the averaged measurements.

Assays:
MCF7 = assay: percentage of EdU-negative (G0-arrested) nuclei per well, 72 h; higher = more G0 arrest; conditions: reference: sequence is the full UniProt precursor, the tested protein was the secreted form or ectodomain
hTERT-HMEC = assay: as above; conditions: reference: sequence is the full UniProt precursor, the tested protein was the secreted form or ectodomain
[1] = protein concentration 0.0225 µM
[2] = protein concentration 0.015525 µM
[3] = protein concentration 0.15525 µM
[4] = protein concentration 0.03125 µM
[5] = protein concentration 0.3125 µM
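Further: secreted proteins added to cultured cells, EdU pulse at the end, nuclei found by Hoechst imaging, EdU status from nuclear versus surrounding ring intensity ratio, PBS as neutral control.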

Row | Sequence | percentage of EdU-negative (MCF7; [1]) [%] | percentage of EdU-negative (MCF7; protein concentration 0.225 µM) [%] | percentage of EdU-negative (hTERT-HMEC; [1]) [%] | percentage of EdU-negative (hTERT-HMEC; protein concentration 0.225 µM) [%] | further results
1 | MRMLLALLALSAARPSASAESHWCYEVQAESSNYPCLVPVKWGGNCQKDRQSPINIVTTKAKVDKKLGRFFFSGYDKKQTWTVQNNGHSVMMLLENKASISGGGLPAPYQAKQLHLHWSDLPYKGSEHSLDGEHFAMEMHIVHEKEKGTSRNVKEAQDPEDEIAVLAFLVEAGTQVNEGFQPLVEALSNIPKPEMSTTMAESSLLDLLPKEEKLRHYFRYLGSLTTPTCDEKVVWTVFREPIQLHREQILAFSQKLYYDKEQTVSMKDNVRPLQQLGQRTVIKSGAPGRPLPWALPALLGPMLACLLAGFLR | 24.9 ± 1.8 | 25.5 ± 1.3 | 5.11 ± 0.088 | 7.91 ± 0.34 | 
2 | MDLSLLWVLLPLVTMAWGQYGDYGYPYQQYHDYSDDGWVNLNRQGFSYQCPQGQVIVAVRSIFSKKEGSDRQWNYACMPTPQSLGEPTECWWEEINRAGMEWYQTCSNNGLVAGFQSRYFESVLDREWQFYCCRYSKRCPYSCWLTTEYPGHYGEEMDMISYNYDYYIRGATTTFSAVERDRQWKFIMCRMTEYDCEFANV | 25.1 ± 0.98 | 26.2 ± 0.3 | 5.38 ± 0.62 | 4.92 ± 0.97 | 
3 | MAAPVPWACCAVLAAAAAVVYAQRHSPQEAPHVQYERLGSDVTLPCGTANWDAAVTWRVNGTDLAPDLLNGSQLVLHGLELGHSGLYACFHRDSWHLRHQVLLHVGLPPREPVLSCRSNTYPKGFYCSWHLPTPTYIPNTFNVTVLHGSKIMVCEKDPALKNRCHIRYMHLFSTIKYKVSISVSNALGHNATAITFDEFTIVKPDPPENVVARPVPSNPRRLEVTWQTPSTWPDPESFPLKFFLRYRPLILDQWQHVELSDGTAHTITDAYAGKEYIIQVAAKDNEIGTWSDWSVAAHATPWTEEPRHLTTEAQAAETTTSTTSSLAPPPTTKICDPGELGSGGGPSAPFLVSVPITLALAAAAATASSLLI | 25 ± 1.9 | 27.1 ± 2.6 | 5 ± 0.54 | 6.52 ± 0.21 | 
4 | MYTAIPQSGSPFPGSVQDPGLHVWRVEKLKPVPVAQENQGVFFSGDSYLVLHNGPEEVSHLHLWIGQQSSRDEQGACAVLAVHLNTLLGERPVQHREVQGNESDLFMSYFPRGLKYQEGGVESAFHKTSTGAPAAIKKLYQVKGKKNIRATERALNWDSFNTGDCFILDLGQNIFAWCGGKSNILERNKARDLALAIRDSERQGKAQVEIVTDGEEPAEMIQVLGPKPALKEGNPEEDLTADKANAQAAALYKVSDATGQMNLTKVADSSPFALELLISDDCFVLDNGLCGKIYIWKGRKANEKERQAALQVAEGFISRMQYAPNTQVEILPQGHESPIFKQFFKDWK | 24.6 ± 2.7 | 26.02 ± 0.14 | 5.3073 ± 0.0047 | 6.38 ± 0.68 | 
5 | MRPQELPRLAFPLLLLLLLLLPPPPCPAHSATRFDPTWESLDARQLPAWFDQAKFGIFIHWGVFSVPSFGSEWFWWYWQKEKIPKYVEFMKDNYPPSFKYEDFGPLFTAKFFNANQWADIFQASGAKYIVLTSKHHEGFTLWGSEYSWNWNAIDEGPKRDIVKELEVAIRNRTDLRFGLYYSLFEWFHPLFLEDESSSFHKRQFPVSKTLPELYELVNNYQPEVLWSDGDGGAPDQYWNSTGFLAWLYNESPVRGTVVTNDRWGAGSICKHGGFYTCSDRYNPGHLLPHKWENCMTIDKLSWGYRREAGISDYLTIEELVKQLVETVSCGGNLLMNIGPTLDGTISVVFEERLRQMGSWLKVNGEAIYETHTWRSQNDTVTPDVWYTSKPKEKLVYAIFLKWPTSGQLFLGHPKAILGATEVKLLGHGQPLNWISLEQNGIMVELPQLTIHQMPCKWGWALALTNVI [Q9BTY2] |  |  |  |  | percentage of EdU-negative (MCF7; [2]): 22.7 ± 0.71%; percentage of EdU-negative (MCF7; [3]): 27.2 ± 2.1%; percentage of EdU-negative (hTERT-HMEC; [2]): 4.67 ± 0.2%; percentage of EdU-negative (hTERT-HMEC; [3]): 5.55 ± 0.98%
6 | MTLLPGLLFLTWLHTCLAHHDPSLRGHPHSHGTPHCYSAEELPLGQAPPHLLARGAKWGQALPVALVSSLEAASHRGRHERPSATTQCPVLRPEEVLEADTHQRSISPWRYRVDTDEDRYPQKLAFAECLCRGCIDARTGRETAALNSVRLLQSLLVLRRRPCSRDGSGLPTPGAFAFHTEFIHVPVGCTCVLPRSV [Q9P0M4] |  |  |  |  | percentage of EdU-negative (MCF7; [4]): 26.7 ± 2.1%; percentage of EdU-negative (MCF7; [5]): 26.1 ± 1.7%; percentage of EdU-negative (hTERT-HMEC; [4]): 5.54 ± 0.085%; percentage of EdU-negative (hTERT-HMEC; [5]): 5.3 ± 0.055%
7 | MKISILLMFLWGLSCALPVTRYQNNESEDSEEWKGHLAQAPTPPLESSESSEGSKVSSEEQANEDPSDSTQSEEGLGSDDHQYIYRLAGGFSRSTGKGGDDKDDDEDDSGDDTFGDDDSGPGPKDRQEGGNSRLGSDEDSDDTIQASEESAPQGQDSAQDTTSESRELDNEDRVDSKPEGGDSTQESESEEHWVGGGSDGESSHGDGSELDDEGMQSDDPESIRSERGNSRMNSAGMKSKESGENSEQANTQDSGGSQLLEHPSRKIFRKSRISEEDDRSELDDNNTMEEVKSDSTENSNSRDTGLSQPRRDSKGDSQEDSKENLSQEESQNVDGPSSESSQEANLSSQENSSESQEEVVSESRGDNPDPTTSYVEDQEDSDSSEEDSSHTLSHSKSESREEQADSESSESLNFSEESPESPEDENSSSQEGLQSHSSSAESQSEESHSEEDDSDSQDSSRSKEDSNSTESKSSSEEDGQLKNIEIESRKLTVDAYHNKPIGDQDDNDCQDGY |  |  |  |  | percentage of EdU-negative (MCF7; protein concentration 0.021 µM): 24.6 ± 0.6%; percentage of EdU-negative (MCF7; protein concentration 0.21 µM): 26.3 ± 0.99%; percentage of EdU-negative (hTERT-HMEC; protein concentration 0.021 µM): 4.74 ± 0.51%; percentage of EdU-negative (hTERT-HMEC; protein concentration 0.21 µM): 14.1 ± 2.1%
